Data published in publication PMC6684389.

Biological target: YTHDC1 YTH domain (UniProt Q96MU7 345-509)
Test: MST

Row | Binder | Kd
1 | AAAGGACGUGG (ssRNA, m6A at position 6) [probe 1] | 0.39 µM
2 | AAAGGACGUGG (ssRNA) [probe 2] | 16.9 µM
